# B1: murine antibody 13D12 (antibody, V domains shown)
# VH: DVKLQESGPAMVKPSQSLSLTCTVTGYSITSGYDWHWIRLFPGNKLEWMGYISYSGYTDYSPSLKSRISITHDTSKNHFFLKLHSVTTEDTATYYCTRGDHSYAMDYWGQGTSVTVS
# VL: DIVMTQSHKFMSTSVGDRVSITCKASQAVGTAVAWYQQKPGQSPKLLIYWASSRHTGVPDRFTGSRSGTDFTLTISSVQSEDLADYFCQQYSSYPLTFGGGTNLEIK
# notes: Mouse monoclonal antibody purified from hybridoma supernatant; also called mouse monoclonal antibody 13D12
# What was measured:
# [1] = molecular target: T1, human CD73 on the cell surface (tumor cells endogenously expressing human CD73; CHOS-human CD73) (human, UniProt P21589 27-549); experiment: full-field cell scanning analyzer (Celigo), percent fluorescent cells, CHOS cells recombinantly expressing human CD73
# T1 construct: The endogenous CD73 of the human tumor lines (MDA-MB-231, Calu6, SK-ME-S, H2030, SKLU1, BT549, A375, HCC44) is treated as the same protein
# T1 sequence: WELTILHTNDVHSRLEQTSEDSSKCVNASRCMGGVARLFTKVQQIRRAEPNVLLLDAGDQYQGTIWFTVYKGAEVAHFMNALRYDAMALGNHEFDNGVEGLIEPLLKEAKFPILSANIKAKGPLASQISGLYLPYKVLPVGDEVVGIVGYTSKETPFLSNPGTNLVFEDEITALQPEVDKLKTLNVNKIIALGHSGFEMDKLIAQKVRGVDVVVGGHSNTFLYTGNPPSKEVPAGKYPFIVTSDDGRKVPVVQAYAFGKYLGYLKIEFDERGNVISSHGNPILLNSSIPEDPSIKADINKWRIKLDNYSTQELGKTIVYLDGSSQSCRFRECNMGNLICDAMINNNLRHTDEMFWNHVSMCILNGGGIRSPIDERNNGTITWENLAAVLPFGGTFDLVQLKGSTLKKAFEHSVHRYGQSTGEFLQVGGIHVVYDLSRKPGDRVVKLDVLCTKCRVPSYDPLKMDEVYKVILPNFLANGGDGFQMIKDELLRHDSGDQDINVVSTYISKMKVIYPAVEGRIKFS
# Procedure: (§1) Experimental method: 10,000 cells were plated on a flat-bottom 96-well plate with 100 μL DMEM+10% FBS/well, cultured overnight so that the cells adhered to the well, and the supernatant was discarded on the next day. Serial 3-fold dilutions of antibody for 8 points were performed by diluting ⅓ of the total volume (100 μL) in 200 μL DMEM. 100 μL of the diluted antibody was added to each well of the cell plate (the supernatants of fused clones or subclones were used for screening), 100 μL of DMEM was added to the corresponding negative control well, and incubation was performed at room temperature for 1 hour. After the supernatant was discarded, 100 μL of secondary antibody (DyLight488 goat anti-mouse IgG (Abcam, Cat. No. ab97015)) was added to each well at a concentration of 5 μg/mL (diluted in DMEM), and incubation was performed for 0.5 hours at room temperature. After staining, the supernatant was discarded, followed by washing once with PBS+2% FBS, then 100 μL of PBS+2% FBS was added to each well, and then reading was performed on analyzer. A full-field cell scanning analyzer (Nexcelom Company, model Celigo® Image Cytometer) was used to measure the reading of the experimental plate. […] The binding effect of the anti-CD73 antibody to the CD73-expressing cell line was determined according to the percentage. […]
# murine CD73 on 4T1 cells = molecular target: T2, murine CD73 on 4T1 cells (murine, UniProt Q61503 29-551); experiment: cell binding on adherent 4T1 cells, DyLight488 goat anti-mouse IgG, full-field cell scanning analyzer (Celigo), % fluorescent cells
# T2 construct: whole, on cells; also called 4T1 (endogenously expressing murine CD73)
# T2 sequence (looked up): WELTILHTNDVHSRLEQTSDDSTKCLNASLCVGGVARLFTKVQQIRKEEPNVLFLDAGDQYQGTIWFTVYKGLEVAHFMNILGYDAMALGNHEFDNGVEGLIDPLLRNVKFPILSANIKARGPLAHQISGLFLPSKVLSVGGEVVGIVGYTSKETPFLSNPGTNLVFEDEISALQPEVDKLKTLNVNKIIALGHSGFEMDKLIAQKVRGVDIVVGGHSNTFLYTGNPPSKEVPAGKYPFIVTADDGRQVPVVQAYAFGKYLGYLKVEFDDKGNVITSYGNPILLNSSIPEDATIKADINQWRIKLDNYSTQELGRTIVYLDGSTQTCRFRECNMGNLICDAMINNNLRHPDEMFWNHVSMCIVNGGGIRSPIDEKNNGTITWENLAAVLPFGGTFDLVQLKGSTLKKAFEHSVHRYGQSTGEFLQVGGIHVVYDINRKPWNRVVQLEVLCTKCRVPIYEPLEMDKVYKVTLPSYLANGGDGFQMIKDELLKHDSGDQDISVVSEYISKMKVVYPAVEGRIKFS
# Procedure: as §1
binder,measurement,setting,value
B1,EC50,[1],0.44 µg/mL
same,binding result,murine CD73 on 4T1 cells,no binding
